Reference: the supplement of paper PMC10065799, “High-throughput profiling of sequence recognition by tyrosine kinases and SH2 domains using bacterial peptide display” (eLife, 2023)

Assays:
Fes = Fes (UniProt P07332); experiment: phosphorylation enrichment, bacterial display (enrichment ratio); higher = better substrate or ligand; peptides without Tyr show the background
MERTK = MERTK (UniProt Q12866); experiment: as above
FGFR3 = FGFR3 (UniProt P22607); experiment: as above
EPHB1 = EPHB1 (UniProt P54762); experiment: as above
Fyn = Fyn (UniProt P06241); experiment: as above
AncSZ = experiment: as above
Jak2 = Jak2 (UniProt O60674); experiment: as above
FGFR1 = FGFR1 (UniProt P11362); experiment: as above
EPHB2 = EPHB2 (UniProt P29323); experiment: as above
Fer (mouse) = experiment: as above
Hck = Hck (UniProt P08631); experiment: as above
c-Abl (mouse) = experiment: as above
c-Src = experiment: as above
SHP2-C SH2 = experiment: SH2 binding enrichment of the phosphorylated peptide, bacterial display (enrichment ratio); higher = better substrate or ligand; peptides without Tyr show the background
Grb2 SH2 = Grb2 SH2 (UniProt P62993); experiment: as above
c-Src SH2 = experiment: as above
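For SH2 binding enrichment of the phosphorylated peptide, bacterial display in this document: peptide library displayed on the E. coli surface as eCPX fusions, selected cells deep-sequenced, score is each peptide's frequency after selection divided by its frequency in the input.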
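For phosphorylation enrichment, bacterial display in this document: 11-residue human phosphosite peptides and single-mutation variants displayed on the E. coli surface, counted by deep sequencing, each peptide's frequency after selection divided by its frequency in the unselected input library; frequency after pTyr selection over input frequency; kinase dosed for 20-30% of maximal phosphorylation in three min.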

Sequence of MERTK (Q12866 whole entry, looked up): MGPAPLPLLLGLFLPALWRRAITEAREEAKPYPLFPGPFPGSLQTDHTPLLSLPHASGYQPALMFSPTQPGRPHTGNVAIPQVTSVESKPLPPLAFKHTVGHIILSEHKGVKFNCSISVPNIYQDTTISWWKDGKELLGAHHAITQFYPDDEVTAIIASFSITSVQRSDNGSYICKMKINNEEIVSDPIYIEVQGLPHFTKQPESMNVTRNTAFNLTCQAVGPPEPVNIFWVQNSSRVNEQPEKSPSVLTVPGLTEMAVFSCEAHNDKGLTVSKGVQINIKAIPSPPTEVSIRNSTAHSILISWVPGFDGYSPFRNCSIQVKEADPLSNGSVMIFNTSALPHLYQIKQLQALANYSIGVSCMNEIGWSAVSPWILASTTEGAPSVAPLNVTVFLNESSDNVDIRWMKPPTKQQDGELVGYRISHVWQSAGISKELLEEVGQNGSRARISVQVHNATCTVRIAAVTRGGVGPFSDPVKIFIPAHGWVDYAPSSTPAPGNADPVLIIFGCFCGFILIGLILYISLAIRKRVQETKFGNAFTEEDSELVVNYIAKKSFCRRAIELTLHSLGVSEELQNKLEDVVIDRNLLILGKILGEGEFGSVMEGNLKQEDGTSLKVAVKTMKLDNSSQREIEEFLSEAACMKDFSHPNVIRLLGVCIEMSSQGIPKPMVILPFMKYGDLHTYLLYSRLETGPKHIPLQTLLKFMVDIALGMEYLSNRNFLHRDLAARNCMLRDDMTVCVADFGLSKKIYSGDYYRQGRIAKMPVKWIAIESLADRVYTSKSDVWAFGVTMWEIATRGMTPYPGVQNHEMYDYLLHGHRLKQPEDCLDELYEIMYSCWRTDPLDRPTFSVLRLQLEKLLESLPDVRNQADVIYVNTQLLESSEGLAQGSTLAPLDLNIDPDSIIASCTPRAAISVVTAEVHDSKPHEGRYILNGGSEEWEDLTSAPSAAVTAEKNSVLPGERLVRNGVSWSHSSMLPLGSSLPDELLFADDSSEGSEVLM
Sequence of FGFR1 (P11362 whole entry, looked up): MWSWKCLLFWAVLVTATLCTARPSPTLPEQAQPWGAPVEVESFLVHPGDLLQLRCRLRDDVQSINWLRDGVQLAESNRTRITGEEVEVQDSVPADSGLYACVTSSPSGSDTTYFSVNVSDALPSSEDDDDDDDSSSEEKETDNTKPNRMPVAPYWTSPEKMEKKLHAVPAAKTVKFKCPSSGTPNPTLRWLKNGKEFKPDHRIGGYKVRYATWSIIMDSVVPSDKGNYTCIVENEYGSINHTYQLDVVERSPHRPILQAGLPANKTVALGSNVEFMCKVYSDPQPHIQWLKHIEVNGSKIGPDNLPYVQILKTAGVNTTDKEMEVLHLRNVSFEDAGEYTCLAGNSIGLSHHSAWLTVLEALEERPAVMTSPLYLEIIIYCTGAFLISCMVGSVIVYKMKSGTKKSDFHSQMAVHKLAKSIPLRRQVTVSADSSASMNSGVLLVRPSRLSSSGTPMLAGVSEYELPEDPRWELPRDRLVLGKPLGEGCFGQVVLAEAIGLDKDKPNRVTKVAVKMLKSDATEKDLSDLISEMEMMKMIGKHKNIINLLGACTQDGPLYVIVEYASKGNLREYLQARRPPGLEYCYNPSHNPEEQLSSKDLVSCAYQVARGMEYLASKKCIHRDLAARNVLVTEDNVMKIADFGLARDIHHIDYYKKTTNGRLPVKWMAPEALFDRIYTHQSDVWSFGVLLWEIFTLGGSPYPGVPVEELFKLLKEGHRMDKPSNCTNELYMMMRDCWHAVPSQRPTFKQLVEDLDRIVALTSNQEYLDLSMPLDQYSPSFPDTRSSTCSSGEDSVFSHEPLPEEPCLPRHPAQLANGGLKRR
Sequence of EPHB2 (P29323 whole entry, looked up): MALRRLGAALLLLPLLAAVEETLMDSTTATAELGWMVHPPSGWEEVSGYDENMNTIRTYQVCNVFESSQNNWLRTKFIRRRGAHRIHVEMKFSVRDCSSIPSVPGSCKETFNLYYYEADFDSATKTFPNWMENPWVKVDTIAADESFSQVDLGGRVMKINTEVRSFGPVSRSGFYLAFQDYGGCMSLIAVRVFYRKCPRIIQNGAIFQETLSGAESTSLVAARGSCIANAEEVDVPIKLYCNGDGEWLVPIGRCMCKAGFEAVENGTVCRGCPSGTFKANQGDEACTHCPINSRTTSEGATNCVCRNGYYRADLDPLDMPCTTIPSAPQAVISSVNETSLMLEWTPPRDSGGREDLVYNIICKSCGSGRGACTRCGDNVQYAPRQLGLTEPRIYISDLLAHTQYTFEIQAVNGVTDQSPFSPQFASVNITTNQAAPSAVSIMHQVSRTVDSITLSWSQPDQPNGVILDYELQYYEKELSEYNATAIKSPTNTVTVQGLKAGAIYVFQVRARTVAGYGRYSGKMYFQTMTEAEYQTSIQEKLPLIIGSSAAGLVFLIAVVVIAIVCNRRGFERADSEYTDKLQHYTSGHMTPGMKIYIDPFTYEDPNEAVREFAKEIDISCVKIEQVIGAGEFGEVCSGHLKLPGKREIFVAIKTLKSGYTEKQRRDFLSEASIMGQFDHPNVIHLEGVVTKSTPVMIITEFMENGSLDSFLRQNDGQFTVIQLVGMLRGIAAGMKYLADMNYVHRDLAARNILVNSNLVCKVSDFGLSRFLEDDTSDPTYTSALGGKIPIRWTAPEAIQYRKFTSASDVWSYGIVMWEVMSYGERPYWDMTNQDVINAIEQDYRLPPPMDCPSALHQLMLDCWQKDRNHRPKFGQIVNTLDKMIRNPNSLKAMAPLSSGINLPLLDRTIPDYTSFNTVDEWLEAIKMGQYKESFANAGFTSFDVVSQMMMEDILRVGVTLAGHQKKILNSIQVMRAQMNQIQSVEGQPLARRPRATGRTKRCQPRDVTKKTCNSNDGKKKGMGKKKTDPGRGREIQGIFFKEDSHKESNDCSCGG
Sequence of Fyn (P06241 whole entry, looked up): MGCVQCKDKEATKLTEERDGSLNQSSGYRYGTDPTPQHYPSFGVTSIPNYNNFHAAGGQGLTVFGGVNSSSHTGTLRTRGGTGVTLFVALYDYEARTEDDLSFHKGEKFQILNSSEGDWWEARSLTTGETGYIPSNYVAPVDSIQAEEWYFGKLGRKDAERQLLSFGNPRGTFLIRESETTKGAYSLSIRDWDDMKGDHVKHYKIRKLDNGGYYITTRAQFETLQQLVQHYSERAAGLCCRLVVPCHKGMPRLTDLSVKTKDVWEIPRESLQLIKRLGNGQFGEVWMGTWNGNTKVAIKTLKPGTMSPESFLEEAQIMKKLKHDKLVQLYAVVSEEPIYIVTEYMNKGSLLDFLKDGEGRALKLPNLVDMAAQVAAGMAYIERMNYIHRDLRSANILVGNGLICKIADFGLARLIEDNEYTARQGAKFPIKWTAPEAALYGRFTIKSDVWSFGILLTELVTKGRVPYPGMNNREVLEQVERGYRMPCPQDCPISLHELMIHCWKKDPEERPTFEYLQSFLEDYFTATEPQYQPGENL
Sequence of Fes (P07332 whole entry, looked up): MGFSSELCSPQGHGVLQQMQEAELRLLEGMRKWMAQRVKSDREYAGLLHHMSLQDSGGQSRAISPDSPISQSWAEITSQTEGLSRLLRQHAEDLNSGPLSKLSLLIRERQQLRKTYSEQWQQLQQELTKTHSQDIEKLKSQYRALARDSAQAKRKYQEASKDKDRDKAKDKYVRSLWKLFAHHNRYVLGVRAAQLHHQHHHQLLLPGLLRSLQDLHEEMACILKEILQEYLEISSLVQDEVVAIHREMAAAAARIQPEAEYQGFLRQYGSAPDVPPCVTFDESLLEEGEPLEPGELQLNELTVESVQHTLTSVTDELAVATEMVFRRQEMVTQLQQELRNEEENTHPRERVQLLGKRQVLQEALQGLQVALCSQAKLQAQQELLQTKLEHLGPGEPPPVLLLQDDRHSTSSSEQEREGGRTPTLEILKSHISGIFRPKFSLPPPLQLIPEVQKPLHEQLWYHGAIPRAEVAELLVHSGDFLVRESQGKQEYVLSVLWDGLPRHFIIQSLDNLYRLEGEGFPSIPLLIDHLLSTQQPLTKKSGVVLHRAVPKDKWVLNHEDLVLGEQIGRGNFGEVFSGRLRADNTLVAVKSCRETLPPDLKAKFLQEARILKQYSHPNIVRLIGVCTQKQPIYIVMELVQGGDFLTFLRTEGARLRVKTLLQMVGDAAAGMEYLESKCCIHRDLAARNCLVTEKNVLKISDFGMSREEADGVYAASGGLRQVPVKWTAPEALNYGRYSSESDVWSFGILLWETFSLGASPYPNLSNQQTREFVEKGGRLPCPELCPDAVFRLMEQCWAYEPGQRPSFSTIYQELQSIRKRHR
Sequence of FGFR3 (P22607 whole entry, looked up): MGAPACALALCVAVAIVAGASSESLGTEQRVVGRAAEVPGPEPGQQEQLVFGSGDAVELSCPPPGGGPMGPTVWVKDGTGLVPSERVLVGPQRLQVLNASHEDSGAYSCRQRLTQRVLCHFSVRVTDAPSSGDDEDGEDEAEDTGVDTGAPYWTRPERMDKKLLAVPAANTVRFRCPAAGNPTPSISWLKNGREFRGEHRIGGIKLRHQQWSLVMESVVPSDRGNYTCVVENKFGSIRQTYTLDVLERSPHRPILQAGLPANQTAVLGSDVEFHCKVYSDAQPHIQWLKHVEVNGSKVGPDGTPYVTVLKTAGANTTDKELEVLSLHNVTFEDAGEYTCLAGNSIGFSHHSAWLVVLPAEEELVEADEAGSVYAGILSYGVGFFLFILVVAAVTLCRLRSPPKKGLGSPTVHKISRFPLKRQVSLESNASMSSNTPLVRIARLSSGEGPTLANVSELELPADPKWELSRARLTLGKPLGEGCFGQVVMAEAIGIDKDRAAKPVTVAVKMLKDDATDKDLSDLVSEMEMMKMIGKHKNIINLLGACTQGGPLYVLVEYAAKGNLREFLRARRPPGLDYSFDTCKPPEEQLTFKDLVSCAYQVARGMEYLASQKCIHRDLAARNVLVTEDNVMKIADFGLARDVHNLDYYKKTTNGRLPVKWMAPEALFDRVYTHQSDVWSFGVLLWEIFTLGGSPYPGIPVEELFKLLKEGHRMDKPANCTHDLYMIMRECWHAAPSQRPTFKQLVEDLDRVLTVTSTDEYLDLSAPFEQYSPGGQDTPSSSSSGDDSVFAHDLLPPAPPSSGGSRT

Row | Sequence | SH2 binding enrichment (SHP2-C SH2) | SH2 binding enrichment (Grb2 SH2) | SH2 binding enrichment (c-Src SH2) | phosphorylation enrichment (Fes) | phosphorylation enrichment (MERTK) | phosphorylation enrichment (FGFR3) | phosphorylation enrichment (EPHB1) | phosphorylation enrichment (Fyn) | phosphorylation enrichment (AncSZ) | phosphorylation enrichment (Jak2) | phosphorylation enrichment (FGFR1) | phosphorylation enrichment (EPHB2) | phosphorylation enrichment (Fer (mouse)) | phosphorylation enrichment (Hck) | phosphorylation enrichment (c-Abl (mouse)) | phosphorylation enrichment (c-Src)
1 | NHYKIHNLCAE [PTEN_Y68_Y68H] | 1.02 | 1.08 | 0.554 | 0.823 | 0.435 | 0.58 | 0.56 | 0.421 | 0.593 | 0.706 | 0.493 | 0.614 | 0.463 | 0.476 | 0.696 | 0.492
2 | NKEAICSGYIR [SMCHD1_Y283_Y283C] | 0.462 | 0.761 | 0.436 | 0.903 | 0.42 | 0.71 | 0.52 | 0.369 | 0.794 | 0.875 | 0.509 | 0.547 | 0.446 | 0.424 | 1.3 | 0.399
3 | NLSVRYDSSLK [ABCC8_Y1353] | 0.863 | 0.887 | 0.587 | 0.98 | 0.381 | 0.633 | 0.515 | 0.353 | 0.68 | 0.847 | 0.446 | 0.457 | 0.422 | 0.473 | 0.55 | 0.492
4 | NPQKSYFIHLY [WAS_Y83_R86H] | 1.02 | 1.29 | 0.804 | 1.23 | 0.424 | 0.782 | 0.588 | 0.589 | 1.12 | 1.18 | 0.46 | 0.586 | 0.517 | 0.559 | 0.864 | 0.407
5 | NTQRPYYKGGG [TYROBP_Y111] | 1.39 | 1.21 | 0.736 | 0.592 | 0.415 | 0.421 | 0.331 | 0.305 | 0.516 | 0.601 | 0.511 | 0.383 | 0.411 | 0.431 | 0.427 | 0.432
6 | NVTGHYISPFH [PPA2_Y59] | 1.11 | 0.852 | 1.14 | 0.542 | 0.563 | 0.422 | 0.423 | 0.448 | 0.552 | 0.492 | 0.459 | 0.493 | 0.325 | 0.486 | 0.92 | 0.362
7 | NYADPYRQLPY [CTNND2_Y503_Q507P] | 0.749 | 0.775 | 1.25 | 0.819 | 6.98 | 2.33 | 10.1 | 0.501 | 0.78 | 0.669 | 4.13 | 10.7 | 0.469 | 0.847 | 0.847 | 0.827
8 | PEADKYRLPFA [FGG_Y300_T303P_YF] | 0.517 | 0.821 | 0.423 | 0.717 | 0.442 | 0.657 | 0.61 | 0.614 | 0.988 | 0.731 | 0.544 | 0.645 | 0.512 | 0.648 | 0.634 | 0.614
9 | PELINYHQHNF [BTK_Y361_S366F] | 0.716 | 1.03 | 0.434 | 1.25 | 0.696 | 0.598 | 0.631 | 0.789 | 1.04 | 1.02 | 0.851 | 0.826 | 0.736 | 0.836 | 0.919 | 0.942
10 | PESIMYRKFTT [NTRK3_Y744] | 0.494 | 1.05 | 0.6 | 0.789 | 0.616 | 0.667 | 0.534 | 0.67 | 3.03 | 0.666 | 0.384 | 0.552 | 0.485 | 0.517 | 0.777 | 0.488
11 | PFTRNYYVQAV [CYBA_Y87_R90Q] | 3.28 | 0.981 | 1.19 | 1.1 | 1.25 | 1.9 | 0.787 | 0.46 | 1.03 | 1.17 | 1.99 | 0.706 | 0.555 | 0.446 | 1.12 | 0.615
12 | PGQRVYVVAER [SHH_Y316] | 0.586 | 0.879 | 0.665 | 0.91 | 0.447 | 0.524 | 0.63 | 0.395 | 0.883 | 0.556 | 0.522 | 0.537 | 0.494 | 0.57 | 0.503 | 0.464
13 | PIPIKYKAMKK [MYD88_Y257_L252P] | 1.1 | 1.32 | 0.822 | 0.72 | 0.382 | 0.858 | 0.407 | 0.5 | 0.677 | 0.665 | 0.383 | 0.495 | 0.336 | 0.582 | 0.642 | 0.534
14 | PLDGEYFTHQI [TP53_Y327_L330H] | 0.717 | 1.12 | 0.429 | 1.43 | 0.656 | 1.55 | 0.932 | 1.99 | 4.62 | 0.99 | 2.17 | 1.15 | 1.08 | 1.65 | 1.5 | 1.61
15 | PLQNTYNFNVL [SLC4A1_Y553_K551N_YF] | 1.1 | 0.85 | 0.624 | 1.43 | 0.634 | 0.616 | 0.798 | 1.67 | 0.891 | 0.959 | 0.803 | 0.756 | 0.812 | 0.57 | 0.893 | 2.52
16 | PNAFIYVVQLP [L1CAM_Y420_A415P_YF] | 0.768 | 0.931 | 0.656 | 1.56 | 1.69 | 1.31 | 1.2 | 0.896 | 1.39 | 1.26 | 0.797 | 1.53 | 0.737 | 1.06 | 0.747 | 0.87

The next lines start with results.

Row | SH2 binding enrichment (SHP2-C SH2) | SH2 binding enrichment (Grb2 SH2) | SH2 binding enrichment (c-Src SH2) | Sequence | phosphorylation enrichment (Fes) | phosphorylation enrichment (MERTK) | phosphorylation enrichment (FGFR3) | phosphorylation enrichment (EPHB1) | phosphorylation enrichment (Fyn) | phosphorylation enrichment (AncSZ) | phosphorylation enrichment (Jak2) | phosphorylation enrichment (FGFR1) | phosphorylation enrichment (EPHB2) | phosphorylation enrichment (Fer (mouse)) | phosphorylation enrichment (Hck) | phosphorylation enrichment (c-Abl (mouse)) | phosphorylation enrichment (c-Src)
17 | 0.829 | 1.02 | 0.606 | NHQFDYTFDWT [CSNK1A1_Y294_YF] | 1.12 | 0.565 | 2.22 | 0.696 | 0.584 | 1.23 | 1.08 | 3.58 | 0.721 | 0.459 | 0.543 | 0.995 | 1.22
18 | 0.603 | 0.814 | 0.458 | NKHTNYTMEHI [ACTN1_Y708] | 0.549 | 0.358 | 0.296 | 0.35 | 0.388 | 0.509 | 0.421 | 0.404 | 0.401 | 0.36 | 0.384 | 0.352 | 0.381
19 | 0.769 | 0.829 | 0.635 | NLRQQYNSPQE [UMPS_Y432_G429R] | 0.587 | 0.293 | 0.43 | 0.382 | 0.437 | 0.634 | 0.592 | 0.464 | 0.439 | 0.345 | 0.451 | 0.354 | 0.316
20 | 0.54 | 0.753 | 1.57 | NNKKDYYDMYE [SLC26A3_Y526_K521N] | 1.04 | 0.483 | 6.01 | 2.03 | 0.792 | 1.47 | 0.735 | 8.57 | 1.52 | 0.544 | 0.728 | 0.537 | 0.591
21 | 1.03 | 0.988 | 0.602 | NPQKSYFICLF [WAS_Y83_R86C_YF] | 1.27 | 0.43 | 0.757 | 0.525 | 0.39 | 1.1 | 1.13 | 0.632 | 0.523 | 0.496 | 0.448 | 1 | 0.504
22 | 0.945 | 1.2 | 0.701 | NPQKSYFIRLF [WAS_Y83_YF] | 1.4 | 0.457 | 0.754 | 0.58 | 0.453 | 1.09 | 1.21 | 0.579 | 0.501 | 0.583 | 0.5 | 0.692 | 0.464
23 | 0.532 | 0.804 | 1.26 | NYDLDYDSVQP [MYC_Y16] | 1.63 | 0.493 | 1.03 | 1.19 | 0.659 | 3.13 | 1.39 | 0.74 | 1.96 | 1.09 | 0.78 | 1.02 | 1.18
24 | 1.18 | 0.818 | 1.26 | PADCRYFAFPQ [GAMT_Y222_YF] | 0.99 | 5.65 | 1.78 | 1.29 | 0.817 | 1.35 | 2.66 | 2.35 | 0.959 | 0.636 | 0.733 | 0.752 | 1.43
25 | 1.36 | 1.01 | 2.15 | PADCRYYTFPQ [GAMT_Y222_A224T] | 2.01 | 11 | 5 | 3.34 | 2.82 | 4.04 | 4.4 | 6 | 2.18 | 4.15 | 2.64 | 1.7 | 5.45
26 | 1.35 | 3.84 | 18.6 | PARLEYYENEK [IRS1_Y46] | 1.26 | 0.547 | 0.882 | 0.613 | 0.732 | 1.26 | 1.17 | 0.533 | 0.723 | 0.25 | 0.48 | 0.725 | 0.711
27 | 0.732 | 0.753 | 0.491 | PELINYQQHNS [BTK_Y361_H362Q] | 1.38 | 0.988 | 0.79 | 0.79 | 0.829 | 1.1 | 1.52 | 0.763 | 0.821 | 0.742 | 1.25 | 1.22 | 0.969
28 | 0.391 | 0.834 | 0.663 | PEVRRHVLPLN [RPE65_Y368_Y368H] | 1.61 | 0.669 | 1.03 | 0.849 | 0.587 | 1.35 | 1.57 | 0.707 | 0.886 | 0.843 | 0.894 | 1.73 | 0.661
29 | 0.569 | 1.05 | 0.849 | PGRRFYVVACD [RNASE3_Y134] | 1.65 | 1.22 | 0.916 | 0.536 | 0.389 | 1.43 | 2.05 | 0.654 | 1.19 | 0.52 | 0.733 | 1.24 | 2.16
30 | 0.88 | 0.957 | 0.524 | PIDLFYLMDLS [ITGB2_Y131_YF] | 1.99 | 0.728 | 1.13 | 0.737 | 0.599 | 1.61 | 1.22 | 0.633 | 0.559 | 0.426 | 0.771 | 0.98 | 1.52
31 | 0.874 | 0.61 | 0.567 | PIFLFYLMDLS [ITGB2_Y131_D128Y_YF] | 3.28 | 0.914 | 1.31 | 2.51 | 0.613 | 2.78 | 3.98 | 0.702 | 1.01 | 1.24 | 0.95 | 1.91 | 1.12
32 | 0.706 | 0.663 | 0.422 | PLDGESFTLQI [TP53_Y327_Y327S] | 1.67 | 0.549 | 1.05 | 0.731 | 0.569 | 1.64 | 1.26 | 0.634 | 0.93 | 0.552 | 0.619 | 1.23 | 0.616
33 | 2.38 | 0.713 | 0.717 | PLQKTYNFNML [SLC4A1_Y553_V557M_YF] | 1.17 | 0.582 | 0.809 | 0.476 | 0.493 | 0.801 | 0.861 | 0.318 | 0.587 | 0.665 | 0.594 | 0.63 | 0.784
